The values below come from US9944688B2, “Non-peptidyl polymer-insulin multimer and method for producing the same” (HANMI SCIENCE CO., LTD., priority 2011, dated 2018).

What is called EC50 is the concentration giving half of the maximal effect.

Series [1] has as its system murine fibroblast 3T3-L1 differentiated into adipocyte. Put plainly: In vitro efficacy test: residual sugar in media of differentiated 3T3-L1 adipocytes. It counts as cell-based. The settings on record: for EC50: differentiated 3T3-L1 adipocytes, 37° C. for 24 h, residual sugar by D-Glucose assay kit. As to the method: In order to differentiate murine fibroblast 3T3-L1 into adipocyte, the cell was inoculated in a 48-well plate containing a 10% FBS/DMEM media containing dexamethasone, IBMX, and insulin at a cell density of 1.0×10^5 per well. The differentiated cells were washed with DPBS three times, and cultured in a serum-free DMEM for 4 h. […] After cultivation at 37° C. for 24 h, the residual sugar concentration in the media was measured using a D-Glucose assay kit (Megazyme), and EC50 values were calculated and shown in Table 1.

A short description of series [2]: Measurement of hydrodynamic volume by size exclusion chromatography. It counts as physicochemical. As to conditions: for Hydrodynamic volume: SEC Superdex 200 10/300 GL, regression line from standard proteins; for Hydrodynamic volume, times larger than monomer: hexamer versus monomer. On the procedure:
PEG-insulin conjugates in 20 mM HEPES buffer (pH 8.2) were mixed with a cobalt chloride solution to a ratio of cobalt to hexamer of 3:1. To convert divalent cobalt ions into trivalent cobalt ions, hydrogen peroxide corresponding to twice of the total divalent cobalt ions was added, and left at room temperature for 2 h. Thereafter, cobalt PEG-insulin hexamers were isolated by SEC (size exclusion chromatography).
Column: Superdex 200 16/60 prep grade (GE Healthcare)
Buffer: 20 mM HEPES pH 8.2+0.2 M NaCl
Hydrodynamic volume of the PEG-insulin conjugate or the cobalt PEG-insulin hexamer was measured according to the conditions described in Example 4, except that Superdex 200 10/300 GL was used as a column. The regression line was calculated from the elution volume of standard protein. Partition coefficient (Kav) is defined as follows. Kav=(Ve−V0)/(Vt−V0)
Ve represents the elution volume, V0 represents the void volume determined by Blue dextran, and Vt represents the bed volume.

Series [3] in a line: Comparison of molecular size by size exclusion chromatography in DPBS. The settings on record: SEC, DPBS buffer. Format: physicochemical. On the procedure: Size exclusion chromatography was performed to indirectly predict the molecular size of subcutaneously injected insulin formulation and its size change according to natural dilution (Havelund et al., 2004). The representative commercial long-acting insulin formulations, Levemir and Lantus, were used as a control group to examine the relative molecular size of the cobalt PEG-insulin hexamer. Chromatography was performed according to the conditions described in Example 4, except that DPBS was used as a buffer solution to create subcutaneous environment.
In general terms: SEC sorts molecules by how far they enter the pores of the column.

The conditions of series [4]: after subcutaneous injection; time for half of the drug to pass the capillary wall; cited from earlier work.

For “PEG (20k)-insulin: human native insulin mono-PEGylated with 20 k mPEG-aldehyde at the amino terminus of the B chain”, in series [1], the EC50 was found to be 13.6 ± 0.71 nM.

In series [1], “PEG (5k)-insulin: human native insulin mono-PEGylated with 5 k mPEG-aldehyde at the amino terminus of the B chain” came in with an EC50 of 9.48 ± 2.77 nM. For the same substance, the Relative activity in series [1] (relative to human native insulin (100)) was determined as 60%. In addition, the Hydrodynamic volume in series [2] amounted to 60 kDa.

Turning to “Cobalt PEG (5k)-insulin hexamer: hexamer of PEG (5k)-insulin conjugates complexed with trivalent cobalt ions”, in series [3], the “Dissociation coefficient (Kav)” value is 0.20 and the Elution time stood at 27.63 min. Moreover, in series [2], the Hydrodynamic volume is 300 kDa and the “Hydrodynamic volume, times larger than monomer” value is on record as “approximately 5 times”.

As for “Cobalt PEG (20k)-insulin hexamer: hexamer of PEG (20k)-insulin conjugates complexed with trivalent cobalt ions”, in series [3], the “Dissociation coefficient (Kav)” value is on record as 0.01 and the Elution time is 20.12 min. Further, in series [2], the Hydrodynamic volume is given as 1,600 kDa and the “Hydrodynamic volume, times larger than monomer” value was “approximately 10 times”.

insulin detemir: the “Subcutaneous half-life, times longer than native insulin hexamer” value in series [4] was 4 times.
